Substrate in series [1]: O=CCc1ccccc1
The series can be described thus: purified protein. Conditions: NAD+ 2.5 mmol L^-1, pH 7.7, aldehyde made from styrene oxide by SOI-1CP. Format: biochemical, Sphingopyxis fribergensis.

Substrate in series [2]: NC(=O)c1ccc[n+]([C@@H]2O[C@H](COP(=O)(O)OP(=O)(O)OC[C@H]3O[C@@H](n4cnc5c(N)ncnc54)[C@H](O)[C@@H]3O)[C@@H](O)[C@H]2O)c1
The series can be described thus: purified protein. Format: biochemical, Sphingopyxis fribergensis. Conditions: phenylacetaldehyde 0.5 mmol L^-1, pH 7.7, aldehyde made from styrene oxide by SOI-1CP, varied: cofactor.

B1: FeaB-Kp5.2 (Sphingopyxis fribergensis) (protein)
chain: MATAQSYVTPLSAVSTFIGHDHGLFIDGDWRAAKGTERLDVFDPSTGEPIASVANASPDDVDHAVRAAHKAFESGVWSGIAPAERERLLLKFADLVEANAEELAQIETLNQGKSINISRFVDVGGAPAYMRYVAGLTTKITGETFDVSIGAIPGARFTASTRREPIGVVGAIAPWNFPMMIGLWKIMPALAAGCTVVLKPSEVTPLTSLRLASLAKEAGLPAGVLNVITGDGKAGKALVDHPLVAKITFTGSTATGKAIARSASDRLLRTSLELGGKNPAIFLADAPIEQAVQGAILGGFFNNGQVCAASSRLYIARAIYDPFIKALAHAVDGMTMGPGLDTAAQINPVVSLQHRAKILDHIARARQDGAQIVAGGESPDRAGYYVRPTVVVGAGAQLAISRQEVFGPLVTVTPFDDEDEAINLANDTEMGLTASLWTNDLKKTMDLVPRIKAGTVWVNCHNLIDPNMPFGGYKESGIGRDFGIHSLDGYSEVKSVCIAH
The term Km denotes the substrate concentration at which the rate is half of its maximum. In general, Vmax refers to the rate approached at saturating substrate. As a reminder, the kcat is the number of substrate molecules converted per active site and unit of time at saturation. As to B1, in “purified protein [1]”, the Km worked out at 22 ± 5 µM, the Vmax came to 14.8 µmol/min/mg and the kcat was 52 s⁻¹. For the same protein, in the series “purified protein [2]”, the Km worked out at 500 ± 300 µM, the Vmax came to 17.8 µmol/min/mg and the kcat turned out to be 62.5 s⁻¹.
